Results reported in patent US20160194407A1 (AstraZeneca / MedImmune, published 2016).
Changes are numbered by the printed parent chain. Names may count otherwise.

T1: recombinant human CD73 protein (form not stated) (human, UniProt P21589 27-549)
T1 construct: also called huCD73; rCD73
T1 sequence: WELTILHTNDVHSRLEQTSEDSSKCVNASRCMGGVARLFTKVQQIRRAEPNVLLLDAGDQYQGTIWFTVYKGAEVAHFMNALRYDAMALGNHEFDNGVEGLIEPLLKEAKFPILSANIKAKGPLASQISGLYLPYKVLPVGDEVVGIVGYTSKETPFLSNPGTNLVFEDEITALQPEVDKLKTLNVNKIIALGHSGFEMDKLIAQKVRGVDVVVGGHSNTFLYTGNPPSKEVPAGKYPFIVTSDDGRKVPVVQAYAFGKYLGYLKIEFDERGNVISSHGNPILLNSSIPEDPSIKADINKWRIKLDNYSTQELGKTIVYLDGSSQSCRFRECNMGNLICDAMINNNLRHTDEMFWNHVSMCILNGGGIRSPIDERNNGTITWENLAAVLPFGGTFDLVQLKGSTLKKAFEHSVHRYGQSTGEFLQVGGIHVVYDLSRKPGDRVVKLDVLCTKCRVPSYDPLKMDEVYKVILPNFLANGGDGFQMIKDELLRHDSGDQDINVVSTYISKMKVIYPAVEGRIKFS

T2: human CD73 on cells (human, UniProt P21589 27-549)
T2 sequence: T1 sequence

B1: CD730010 antibody (antibody, IgG1, V domains shown)
VH: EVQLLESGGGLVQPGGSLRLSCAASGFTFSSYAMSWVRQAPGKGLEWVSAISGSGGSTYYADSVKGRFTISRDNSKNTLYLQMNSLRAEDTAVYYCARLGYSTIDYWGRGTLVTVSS
VL: LPVLTQPPSVSGTPGQRVTISCSGSLSNIGRNPVNWYKQVPGTAPKLLIYLNNQRPSGVPDRFSGSKSGTSASLAISGLQSEDEADYYCATWDDSLNGWLFGGGTKLTVL
notes: IgG1; tested as IgG1-TM (L234F, L235E, P331S); also called clone 10
B2: CD730010 GL10 (antibody, V domains shown)
VH: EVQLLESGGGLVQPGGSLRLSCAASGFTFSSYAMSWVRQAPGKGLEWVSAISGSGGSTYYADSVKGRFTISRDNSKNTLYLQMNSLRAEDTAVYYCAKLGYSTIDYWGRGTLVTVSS
VL: B1 VL
B3: C1 (antibody, IgG1, V domains shown)
VH: EVQLLESGGGLVQPGGSLRLSCAASGFTFSSYAYSWVRQAPGKGLEWVSAISGSGGSTYYADSVKGRFTISRDNSKNTLYLQMNSLRAEDTAVYYCARLGYSTIDKWGRGTLVTVSS
VL: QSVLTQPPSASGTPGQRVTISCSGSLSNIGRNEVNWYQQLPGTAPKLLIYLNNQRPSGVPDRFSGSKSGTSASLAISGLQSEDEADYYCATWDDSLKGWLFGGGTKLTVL
notes: also called clone 10 C1
B4: C2 (antibody, IgG1, V domains shown)
VH: B3 VH with A50L, S52W, G55W, K106M
VL: B1 VL with L1Q, P2S, V10A, K38Q, V40L, N52D, Q54L, P56L, S57G, N97K
notes: also called clone 10 C2
B5: G10 (antibody, IgG1, V domains shown)
VH: B3 VH with G55W, S57R, K106L
VL: B1 VL with L1Q, P2S, V10A, P33D, K38Q, V40L, P56L, S57G, N97K
notes: also called clone 10 G10
B6: 73combo1 (C1 + GRVE + HPT) (antibody, IgG1, V domains shown)
VH: B3 VH with S102G, T103R, I104V, K106E
VL: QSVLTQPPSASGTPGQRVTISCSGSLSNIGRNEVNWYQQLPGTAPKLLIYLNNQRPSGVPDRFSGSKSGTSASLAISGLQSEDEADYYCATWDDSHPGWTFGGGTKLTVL
notes: also called clone 10 combo1
B7: 73combo2 (C2 + GRVE + HPT) (antibody, IgG1, V domains shown)
VH: B3 VH with A50L, S52W, G55W, S102G, T103R, I104V, K106E
VL: QSVLTQPPSASGTPGQRVTISCSGSLSNIGRNPVNWYQQLPGTAPKLLIYLDNLRLGGVPDRFSGSKSGTSASLAISGLQSEDEADYYCATWDDSHPGWTFGGGTKLTVL
notes: also called clone 10 combo2
B8: 73combo5 (G10 + GRVE + HPT) (antibody, IgG1, V domains shown)
VH: B3 VH with G55W, S57R, S102G, T103R, I104V, K106E
VL: B7 VL with P33D, D52N, L54Q
notes: also called clone 10 combo5
B9: CD730002 antibody (antibody, IgG1, V domains shown)
VH: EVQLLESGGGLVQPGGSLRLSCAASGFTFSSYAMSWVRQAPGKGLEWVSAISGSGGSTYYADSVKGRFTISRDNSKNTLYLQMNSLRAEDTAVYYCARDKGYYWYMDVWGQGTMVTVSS
VL: QSVLTQPPSVSVSPGQTATITCSGDKVGDKYASWYQQKPGQSPVLVIYEDTKRPSRIPERFSGSNSGNTATLTISGTQALDEADYFCQAWDTSFWVFGGGTKLTVL
notes: IgG1; tested as IgG1-TM; also called clone 2
B10: CD730002 2C5 (antibody, IgG1, V domains shown)
VH: EVQLLESGGGLVQPGGSLRLSCAASGFTFSSYAMSWVRQAPGKGLEWVSAISGSGGSTYYADSVKRRFTISRDNSKNTLYLQMNSLRAEDTAVYYCARDKGYYWYMDVWGQGTMVTVSS
VL: B9 VL with T19S, P54L, R56G, L80M, F86Y
notes: IgG1; also called clone 2C5 antibody
B11: CD730008 antibody (antibody, IgG1, V domains shown)
VH: B3 VH with S7T, Y34M, L99G, G100N, S102G, T103N, I104L, K106H, R109K
VL: B9 VL with T19S, E49Q, T51R, R56G, A79P, L80M, F86Y, T92S, F94H
B12: CD730004 antibody (antibody, IgG1, V domains shown)
VH: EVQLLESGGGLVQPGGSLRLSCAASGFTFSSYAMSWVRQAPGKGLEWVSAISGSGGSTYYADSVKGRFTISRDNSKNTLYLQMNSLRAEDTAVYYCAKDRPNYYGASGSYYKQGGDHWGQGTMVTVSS
VL: NFMLTQPHSVSESPGQTVTISCTRSSGSIASKYVQWYQKRPGSSPTTVIYEDTQRPSGVPDRFSGSIDISSNSASLTISGLRTEDEADYYCQSYDSTNWVFGGGTKVTVL
notes: IgG1
B13: CD730011 antibody (antibody, IgG1, V domains shown)
VH: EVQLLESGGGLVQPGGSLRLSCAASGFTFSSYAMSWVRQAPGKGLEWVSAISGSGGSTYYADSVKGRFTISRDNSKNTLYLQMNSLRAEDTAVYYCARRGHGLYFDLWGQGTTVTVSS
VL: NFMLTQPHSVSESPGKTVTISCTRSSGSIASKYVQWYQQRPGSSPMAVIYKDNQRSSGVPDRFSGSIDSSSNSASLTISGLKPEDEADYYCQSYDASNYYVFGTGTKVTVL
notes: IgG1; also called CD7300011
B14: CD730021 antibody (antibody, IgG1, V domains shown)
VH: QVQLQESGPGLVRPSETLSLTCTVSGGSISSSSYYWAWVRQSPGKGLEWIGNIYYRGSTYYNPSLKSRVTMSVDMSKHQFSLKLSSLNAADTAVYYCASLYSGTYVFDYWGRGTLVTVSS
VL: QSVLTQPPSASGTPGQRVTISCSGSRPNIGGNTVNWYQQLPGAAPKLLIYSNSQRPSGVPDRFSGSKYGTSASLAISGLQSDDEADYYCGTWDDSLNGPVFGRGTKLTVL
notes: IgG1
B15: CD730042 antibody (antibody, IgG1, V domains shown)
VH: GVQLVQSGGGLVQPGGSLRLSCAASGFTFSSYGMHWVRQAPGKGLEWVAVISYDGSIKYYADSVKGRFTISRDDSKNALYLQMNSLRAEDTAVYYCSTLSGSYGYFDYWGRGTLVTVSS
VL: QSVLTQPASVSGSPGQSITISCAGTSSDVGGYNYVSWYQQHPGKAPKLMIYEGSKRPSGVSNRFSGSKSGNTASLTISGLQAEDEADYYCSSYTTRSTRVFGGGTKLTVL
notes: IgG1
B16: CD730046 antibody (antibody, IgG1, V domains shown)
VH: QVQLVQSGGGVVQPGRSLRLSCAASGFTFSSYGMHWVRQAPGKGLEWVAVISYDGSIKYYADSVKGRFTISRDNSKNSLFLQMNSLRDDDTATYYCARGHLLRIGDIFYYSLDVWGQGTLVTVSS
VL: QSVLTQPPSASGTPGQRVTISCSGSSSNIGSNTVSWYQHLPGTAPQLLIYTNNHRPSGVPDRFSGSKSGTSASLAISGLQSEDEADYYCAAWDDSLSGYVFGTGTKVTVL
notes: IgG1
B17: CD730047 antibody (antibody, IgG1, V domains shown)
VH: EVQLVQSGGGVVQPGRSLRLSCAASGFTFSSYGMHWVRQAPGKGLEWVAVISYDGSIKYYADSVKGRFAISRDNAKNTLYLQMNSLRREDTAMYYCASGLTGVAGALGVWGRGTLVTVSS
VL: QSVLTQPPSASGAPGQRVTISCSGSSSNIGSNTVNWYQRLPGAAPQLLIYNNDQRPSGIPDRFSGSKSGTSGSLVISGLQSEDEADYYCAAWDDSLSGNVFGTGTKVTVL
notes: IgG1

Biological target: T1, recombinant human CD73 protein (form …)
Test: assay and target not stated in Table 11 (taken as human CD73)

In order of rising EC50:
1. B1  69 nM
2. B2  205 nM

Biological target: T3, cynomolgus CD73 on cells (cynomolgus)
T3 construct: whole, on cells; also called native CD73 on MK-1 cells (cynomolgus)
Test: flow cytometry on MK-1 cells, IgG1-TM

In order of falling Kd:
1. B5  0.258 nM
2. B3  0.16 nM
3. B4  0.105 nM
4. B6  0.09 nM
5. B8  0.078 nM
6. B7  0.074 nM
7. B10  0.063 nM
8. B9  0.052 nM

Biological target: T2, human CD73 on cells
Test: cell-based or functional assay

For B1, the “FabZAP internalization, EC50, MDA-MB-231” value was 0.158 nM.

In the case of B1, the “FabZAP internalization, max toxicity, MDA-MB-231” value is reported as 84%.

Biological target: T2, human CD73 on cells
Test: cell-based or functional assay
Remark: another data set of the same source

In the case of B11, the “1/EC50, Enzyme Inhibition, MDA-MB-231” value is reported as 0.011 nM⁻¹.

Biological target: T4, cynomolgus CD73 extracellular domain (ECD) (cynomolgus)
T4 construct: extracellular domain; also called Cynomolgus CD73 ECD; cyno CD73 (SPR Proteon)
Test: SPR (Proteon), IgG1-TM

In order of rising Kd:
1. B6  0.008 nM
2. B10  0.009 nM
3. B3  0.012 nM
4. B9  0.015 nM
5. B1  1.92 nM

Biological target: cynomolgus CD73 (form not stated) (cynomolgus)
Test: Binding, Cyno; assay not described

In order of rising 1/EC50:
1. B17  0 nM⁻¹
2. B12  2e-06 nM⁻¹
3. B11  0.0011 nM⁻¹
4. B14  0.0012 nM⁻¹
5. B15  0.0014 nM⁻¹
6. B13  0.0027 nM⁻¹
7. B1  0.0033 nM⁻¹
8. B16  0.01 nM⁻¹
9. B9  0.2 nM⁻¹
